The text below walks through data of paper PMC4521159.

The target of test [1] is α-synuclein oligomers formed during incubation with IDE (37 °C, 48 h, agitation) (UniProt P37840).
For test [2] the target is unchanged. This is another data set of the same source.
Test [3] addresses pre-formed α-synuclein oligomers (formed with the small molecule FN075) (UniProt P37840). The test can be described thus: ITC; 200 μM IDE in the syringe, 20 μM pre-formed α-synuclein oligomers (FN075) in the cell; 20 or 30 °C; 20 mM phosphate pH 7.4, 140 mM NaCl.

On to “Insulin-degrading enzyme (IDE) (from UniProt P14735 1-1019)”, for which, in test [1], the kcat of 1 μM IDE on fluorogenic substrate V after 48 h pre-incubation with 0-100 μM α-synuclein (0.020 without; highest at 100 μM) came to 0.058 s⁻¹, the kcat of 3 μM IDE on fluorogenic substrate V after 48 h pre-incubation with 0-70 μM α-synuclein (0.241 without; highest at 35 μM) came out at 0.397 s⁻¹, the kcat/KM of 1 μM IDE on fluorogenic substrate V after 48 h pre-incubation with 0-100 μM α-synuclein (1010 without; highest at 100 μM) came out at 1190 M⁻¹ s⁻¹ and the kcat/KM of 3 μM IDE on fluorogenic substrate V after 48 h pre-incubation with 0-70 μM α-synuclein (25400 without; highest at 35 μM) is 30500 M⁻¹ s⁻¹. Besides, in test [2], the ThT fluorescence of 70 μM α-synuclein after 48 h (37 °C, agitation) with 0.2-6.0 μM IDE; half maximal inhibition of amyloid formation (molar ratio IDE to α-synuclein) is 0.025. Besides, in test [3], the stoichiometry N (IDE molecules per α-synuclein oligomer) worked out at 3.
